Results published in paper PMC2217137.
pKd: −log10 of the molar value.

Target: rabbit skeletal muscle Ca2+ release channel (ryanodine receptor), purified 30 S complex (rabbit) (UniProt P11716)
Assay: single-channel recording in planar lipid bilayers

imperatoxin activator (IpTxa), synthetic (from UniProt P59868 1-33) (peptide)
K m (of P substate against [IpTxa]): 2 nM

imperatoxin activator (IpTxa), native, purified from Pandinus imperator venom (from UniProt P59868 1-33) (peptide)
pKd: 7.74
time constant of dwell times in the burst (toxin-free) state at 100 nM IpTxa: 965 ms
time constant of dwell times in the subconductance (toxin-bound) state: 3380 ms
